In paper PMC5701637, “Identification and Analysis of Novel Inhibitors against NS3 Helicase and NS5B RNA-Dependent RNA Polymerase from Hepatitis C Virus 1b (Con1)”:

Target: NS3 helicase (NS3h) (Hepatitis C virus genotype 1b (Con1), UniProt Q9WMX2 1193-1660)
Experiment: fluorescence polarization; 5 nM DNA, 15 nM NS3h, 1.25 mM MgCl2; FP: 25 mM MOPS pH 7.5, 1.25 mM MgCl2, 0.0025 mg/mL BSA, 0.005% Tween 20, 0.025 mM DTT, 1% DMSO, temperature not stated; EMSA: 50 mM Tris-Cl pH 7.4, 10% glycerol, 0 C, 20 min
Conditions: protein: recombinant; tags: His tag (pET21b(+), HisTrap purified); single strand

NS3 helicase (NS3h), sequence (Q9WMX2 1193-1660): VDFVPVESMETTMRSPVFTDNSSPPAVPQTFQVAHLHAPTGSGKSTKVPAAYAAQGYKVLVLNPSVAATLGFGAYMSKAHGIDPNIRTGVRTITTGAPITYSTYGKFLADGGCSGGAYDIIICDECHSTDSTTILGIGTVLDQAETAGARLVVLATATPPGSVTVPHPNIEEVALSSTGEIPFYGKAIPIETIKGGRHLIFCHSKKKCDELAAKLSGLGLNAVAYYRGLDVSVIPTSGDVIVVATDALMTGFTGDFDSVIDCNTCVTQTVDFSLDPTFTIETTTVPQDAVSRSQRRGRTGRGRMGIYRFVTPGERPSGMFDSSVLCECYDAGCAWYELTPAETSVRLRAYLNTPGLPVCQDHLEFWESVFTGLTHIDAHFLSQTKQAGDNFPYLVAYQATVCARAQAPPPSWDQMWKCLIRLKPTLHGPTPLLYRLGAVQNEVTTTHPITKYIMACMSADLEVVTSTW

TTTTTTTTTTTTTTT (ssDNA) [Cy5-dT15]: binds.
